Earlier results as cited in article PMC8466385.

Biological target: Tyr411 (UniProt position 435, ALLVRYTKKVP)
Assay: kinetics
Conditions: not stated for the pKa values (Table 1 footnote c gives 22.0 °C for kinetic parameters from the same reference)

## Human serum albumin (HSA) (Homo sapiens)
HSA:NphODe (p-nitrophenyl decanoate) substrate complex
  pKa: 7.0
HSA:NphOHe (p-nitrophenyl hexanoate) substrate complex
  pKa: 7.6
substrate-free HSA
  pKa: 8.9
